In patent US20160002344A1 (ONCOMED PHARMACEUTICALS, published 2016):
Where a chain is given by its changes, count along the chain named.

B1: anti-RSPO1 monoclonal antibody 89M5 (hybridoma ATCC PTA-11970) (antibody, mouse IgG1, kappa, V domains shown)
VH: EVQLQQSGPELVKPGASVKISCKTSGYTFTGYTMHWVRQSHGKTLEWIGGINPNNGGTTYNQNFKGKATLTVEKSSTTAYLELRSLTSEDSALYYCARKEFSDGYYFFAYWGQGTLVTVSS
VL: DIVMTQSHKFMSTSVGDRVNITCKASQDVIFAVAWYQQKPGQSPKLLIYWASTRHTGVPDRFTGSVSGTDYTLTISSVQAEDLALYYCQQHYSTPWTFGGGTKLEIKR
notes: Murine monoclonal antibody; also called parental 89M5 antibody
B2: anti-RSPO1 monoclonal antibody 89M25 (antibody, V domains shown)
VH: B1 VH with S121A
VL: DIVMTQSHKFMSTSVGDRVNITCKASQDVIFAVAWYQQKPGQSPKLLIYWASTRHTGVPDRFTGSVSGTDYTLTISSVQAEDLALYYCQQHYSTPWTFGGGTKLEIK
B3: anti-RSPO1 monoclonal antibody 89M4 (antibody, V domains shown)
VH: B1 VH with S121A
VL: B2 VL
B4: anti-RSPO2 monoclonal antibody 130M23 (hybridoma ATCC PTA-12021) (antibody, mouse IgG1, kappa, V domains shown)
VH: EVKLVESGGGLVKPGGSLKFSCAASGFSFSSYAMSWVRQTPEKRLEWVASISSGGSTYYPDSVKGRFTISRDNVRNILYLQMSSLRSEDTAMYFCARGGDPGVYNGDYEDAMDYWGQGTSVTVSS
VL: B1 VL with N20S, I30S, F31S, G64N, V66G
notes: Murine monoclonal antibody; also called parental 130M23 antibody
B5: humanized anti-RSPO2 antibody h130M23-H1L2 (antibody, human IgG2, kappa, V domains shown)
VH: EVQLVESGGGLVKPGGSLRLSCAASGFTFSSYAMSWVRQAPGKGLEWVSSISSGGSTYYPDSVKGRFTISRDNAKNSLYLQMNSLRAEDTAVYYCARGGDPGVYNGDYEDAMDYWGQGTTVTVSS
VL: DIQMTQSPSSLSASVGDRVTITCKASQDVSSAVAWYQQKPGKAPKLLIYWASTRHTGVPSRFSGSGSGTDFTLTISSVQAEDFATYYCQQHYSTPWTFGQGTKVEIKR
notes: also called 130M23-H1 with 130M23-L2
B6: humanized anti-RSPO2 antibody h130M23-H1L6 (antibody, human IgG2, kappa, V domains shown)
VH: B5 VH
VL: B5 VL with V78L, A80P
B7: recombinant human RSPO2-Fc fusion protein (Fc fusion)
chain: QGNRWRRSKRASYVSNPICKGCLSCSKDNGCSRCQQKLFFFLRREGMRQYGECLHSCPSGYYGHRAPDMNRCARCRIENCDSCFSKDFCTKCKVGFYLHRGRCFDECPDGFAPLEETMECVEGCEVGHWSEWGTCSRNNRTCGFKWGLETRTRQIVKKPVKDTIPCPTIAESRRCKMTMRHCPGGKRTPKAKEKRNKKKKRKLIERAQEQHSVFLATDRANQ
notes: not shown: human Fc region
B8: recombinant human RSPO1-Fc fusion protein (Fc fusion)
chain: SRGIKGKRQRRISAEGSQACAKGCELCSEVNGCLKCSPKLFILLERNDIRQVGVCLPSCPPGYFDARNPDMNKCIKCKIEHCEACFSHNFCTKCKEGLYLHKGRCYPACPEGSSAANGTMECSSPAQCEMSEWSPWGPCSKKQQLCGFRRGSEERTRRVLHAPVGDHAACSDTKETRRCTVRRVPCPEGQKRRKGGQGRRENANRNLARKESKEAGAGSRRRKGQQQQQQQGTVGPLTSAGPA
notes: not shown: human Fc region
B9: recombinant human RSPO3-Fc fusion protein (Fc fusion)
chain: QNASRGRRQRRMHPNVSQGCQGGCATCSDYNGCLSCKPRLFFALERIGMKQIGVCLSSCPSGYYGTRYPDINKCTKCKADCDTCFNKNFCTKCKSGFYLHLGKCLDNCPEGLEANNHTMECVSIVHCEVSEWNPWSPCTKKGKTCGFKRGTETRVREIIQHPSAKGNLCPPTNETRKCTVQRKKCQKGERGKKGRERKRKKPNKGESKEAIPDSKSLESSKEIPEQRENKQQQKKRKVQDKQKSVSVSTVH
notes: not shown: human Fc region
B10: recombinant human RSPO4-Fc fusion protein (Fc fusion)
chain: LNRRKKQVGTGLGGNCTGCIICSEENGCSTCQQRLFLFIRREGIRQYGKCLHDCPPGYFGIRGQEVNRCKKCGATCESCFSQDFCIRCKRQFYLYKGKCLPTCPPGTLAHQNTRECQGECELGPWGGWSPCTHNGKTCGSAWGLESRVREAGRAGHEEAATCQVLSESRKCPIQRPCPGERSPGQKKGRKDRRPRKDRKLDRRLDVRPRQPGLQP
notes: not shown: human Fc region

Legend:
[1] = molecular target: B8; test: SPR (Biacore 2000), RSPO1-Fc immobilized on CM5 chip, antibody injected 100 nM to 0.78 nM
Method: (§1) The KDs of antibodies 89M4, 89M5, 89M7 and 89M25 were determined using a Biacore 2000 system from Biacore LifeSciences (GE Healthcare). Recombinant human RSPO1-Fc or mouse RSPO1-Fc proteins were immobilized on CM5 chips using standard amine-based chemistry (NHS/EDC). The antibodies were serially diluted 2-fold from 100 nM to 0.78 nM in HBS-P (0.01M HEPES pH7.4, 0.15M NaCl, 0.005% v/v Surfactant P20) and were injected over the chip surface. Kinetic data were collected over time and were fit using the simultaneous global fit equation to yield affinity constants (KD values) for each antibody.

[2] = molecular target: T1, recombinant mouse RSPO1-Fc protein (mouse, UniProt Q9Z132 21-265, limits assumed); test: as above
T1 construct: Construct not described; not shown: Fc; not described
Method: as §1

[3] = molecular target: Figure 9A construct 1: Positive charge, furin1 (human) (UniProt Q2MKA7); test: FACS, HEK-293 cells transfected with the FLAG-RSPO1 portion-CD4TM construct in Figure 9A; anti-RSPO1 antibody 89M5, PE-conjugated secondary antibody
Sequence of Figure 9A construct 1: Positive charge, furin1 (human) (Q2MKA7 other isoform, or with tags, fused parts or gaps): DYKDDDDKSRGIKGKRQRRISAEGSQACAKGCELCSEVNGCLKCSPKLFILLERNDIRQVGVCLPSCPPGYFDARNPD

[4] = molecular target: Figure 9A construct 2: Positive charge, furin1, furin2 (human) (UniProt Q2MKA7); test: as above
Sequence of Figure 9A construct 2: Positive charge, furin1, furin2 (human) (Q2MKA7 other isoform, or with tags, fused parts or gaps): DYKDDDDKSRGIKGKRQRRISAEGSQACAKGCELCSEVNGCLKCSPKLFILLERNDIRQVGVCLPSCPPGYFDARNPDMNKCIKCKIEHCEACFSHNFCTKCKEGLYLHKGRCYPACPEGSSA

[5] = molecular target: Figure 9A construct 3: Positive charge, furin1, furin2, cysteine, Thrombospondin (human) (UniProt Q2MKA7); test: as above
Sequence of Figure 9A construct 3: Positive charge, furin1, furin2, cysteine, Thrombospondin (human) (Q2MKA7 other isoform, or with tags, fused parts or gaps): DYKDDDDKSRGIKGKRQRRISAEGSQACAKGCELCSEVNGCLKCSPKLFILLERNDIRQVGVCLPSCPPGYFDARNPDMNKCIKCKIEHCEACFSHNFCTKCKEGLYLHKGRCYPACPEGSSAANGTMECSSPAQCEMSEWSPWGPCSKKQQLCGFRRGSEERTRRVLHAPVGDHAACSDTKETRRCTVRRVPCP

[6] = molecular target: Figure 9A construct 4: Positive charge, furin1, furin2, cysteine, Thrombospondin, Positive charge (human) (UniProt Q2MKA7); test: as above
[7] = molecular target: Figure 9A construct 5: furin1, furin2, cysteine (human) (UniProt Q2MKA7); test: as above
Sequence of Figure 9A construct 5: furin1, furin2, cysteine (human) (Q2MKA7 other isoform, or with tags, fused parts or gaps): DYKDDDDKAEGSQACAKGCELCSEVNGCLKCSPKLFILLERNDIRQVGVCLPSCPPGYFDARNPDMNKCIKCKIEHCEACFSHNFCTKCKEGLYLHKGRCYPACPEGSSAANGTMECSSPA

[8] = molecular target: B7; test: SPR (Biacore 2000), RSPO2-Fc immobilized on CM5 chip, antibody injected 100 nM to 0.78 nM
Method: as §1, with “KD” for “KDs”, “130M23 was” for “antibodies 89M4, 89M5, 89M7 and 89M25 were”, “RSPO2-Fc” for “RSPO1-Fc”

[9] = molecular target: T2, recombinant mouse RSPO2-Fc protein (mouse, UniProt Q8BFU0 24-243, limits assumed); test: as above
T2 construct: Construct not described; not shown: Fc; not described
T2 sequence (Q8BFU0 24-243 limits assumed): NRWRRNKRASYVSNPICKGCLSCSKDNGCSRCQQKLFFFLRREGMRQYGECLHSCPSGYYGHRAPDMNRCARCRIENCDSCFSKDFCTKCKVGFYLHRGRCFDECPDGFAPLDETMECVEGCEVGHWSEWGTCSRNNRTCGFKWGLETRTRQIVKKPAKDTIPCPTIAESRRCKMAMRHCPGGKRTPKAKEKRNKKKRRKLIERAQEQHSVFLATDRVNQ
Method: as §1, with “KD” for “KDs”, “130M23 was” for “antibodies 89M4, 89M5, 89M7 and 89M25 were”, “RSPO2-Fc” for “RSPO1-Fc”

[10] = molecular target: B7; test: SPR (Biacore 2000), human RSPO2-Fc immobilized on CM5 chip, antibody injected 100 nM to 0.78 nM
Method: as §1, with “KD” for “KDs”, “h130M23-H1L2” for “antibodies 89M4, 89M5, 89M7”, “h130M23-H1L6” for “89M25”, “RSPO2-Fc protein was” for “RSPO1-Fc or mouse RSPO1-Fc proteins were”

[11] = molecular target: T3, soluble LGR5-Fc fusion protein (human, UniProt O75473 22-564); test: SPR (Biacore 2000), RSPO-Fc immobilized on CM5 chip, soluble LGR5-Fc injected 100 nM to 0.78 nM
T3 construct: range 22-564; Expressed in insect cells with baculovirus, purified on protein A; not shown: human Fc
T3 sequence (looked up): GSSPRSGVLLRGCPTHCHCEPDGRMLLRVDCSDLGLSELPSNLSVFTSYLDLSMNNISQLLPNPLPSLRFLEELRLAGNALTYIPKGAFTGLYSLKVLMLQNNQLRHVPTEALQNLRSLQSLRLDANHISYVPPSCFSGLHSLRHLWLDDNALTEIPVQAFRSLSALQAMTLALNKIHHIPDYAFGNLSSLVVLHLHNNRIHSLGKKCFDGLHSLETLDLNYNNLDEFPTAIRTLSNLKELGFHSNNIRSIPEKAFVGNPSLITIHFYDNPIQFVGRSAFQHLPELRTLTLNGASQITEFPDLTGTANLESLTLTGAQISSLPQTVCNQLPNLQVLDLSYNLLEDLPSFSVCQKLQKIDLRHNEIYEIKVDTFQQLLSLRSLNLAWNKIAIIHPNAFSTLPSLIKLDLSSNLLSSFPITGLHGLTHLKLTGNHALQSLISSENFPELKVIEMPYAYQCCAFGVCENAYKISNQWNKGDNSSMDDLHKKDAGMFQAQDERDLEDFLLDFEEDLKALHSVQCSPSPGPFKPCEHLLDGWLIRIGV
Method: Binding affinities between RSPO proteins and LGR5 were analyzed by surface plasmon resonance. A soluble LGR5-Fc construct was generated using standard recombinant DNA techniques. Specifically, amino acids 1-564 of human LGR5 were ligated in frame to human Fc and the recombinant LGR5-Fc fusion protein was expressed in insect cells using baculovirus. The LGR5-Fc fusion protein was purified from the insect medium using protein A chromatography. Cleavage of the LGR5 signal sequence results in a mature LGR5-Fc fusion protein containing amino acids 22-564 of LGR5. Recombinant RSPO1-Fc, RSPO2-Fc, RSPO3-Fc and RSPO4-Fc fusion proteins were immobilized on CM5 chips using standard amine-based chemistry (NHS/EDC). Two-fold dilutions of soluble LGR5-Fc were injected over the chip surface (100 nM to 0.78 nM). Kinetic data were collected over time using a Biacore 2000 system from Biacore Life Sciences (GE Healthcare) and the data were fit using the simultaneous global fit equation to yield affinity constants (KD values) for each RSPO protein (Table 3).

Row | Binder | Kd [1] | Kd [2] | Kd [11] | other results
1 | B1 | < 0.1 nM | < 0.1 nM | – | MFI [3]: 5.42; MFI [4]: 15.5; MFI [5]: 20.1; MFI [6]: 10.3; MFI [7]: 406
2 | B2 | < 0.1 nM | < 0.1 nM | – | –
3 | B3 | < 0.1 nM | < 0.1 nM | – | –
4 | B4 | – | – | – | Kd [8]: 0.14 nM; Kd [9]: 0.35 nM
5 | B5 | – | – | – | Kd [10]: 0.13 nM
6 | B6 | – | – | – | Kd [10]: 0.15 nM
7 | B7 | – | – | 14 nM | –
8 | B8 | – | – | 110 nM | –
9 | B9 | – | – | < 1 nM | –
10 | B10 | – | – | 73 nM | –
